15 molecules from patent publication US20110118131A1 (published 2011) can be followed below.

T1: Ep-CAM (UniProt P16422 24-265, limits assumed)
T1 construct: Amine coupled to a CM5 chip in the Biacore assays
T1 sequence (looked up): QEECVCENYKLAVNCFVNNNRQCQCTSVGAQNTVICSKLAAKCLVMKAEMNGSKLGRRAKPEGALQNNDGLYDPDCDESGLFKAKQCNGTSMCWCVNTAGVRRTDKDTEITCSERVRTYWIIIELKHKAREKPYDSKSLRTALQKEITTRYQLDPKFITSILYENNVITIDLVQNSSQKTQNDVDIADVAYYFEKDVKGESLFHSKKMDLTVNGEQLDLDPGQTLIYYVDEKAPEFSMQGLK

T2: Ep-CAM (UniProt P16422 24-265, limits assumed)
T2 construct: Antigen of the Biacore analysis of ING-1 variants
T2 sequence (looked up): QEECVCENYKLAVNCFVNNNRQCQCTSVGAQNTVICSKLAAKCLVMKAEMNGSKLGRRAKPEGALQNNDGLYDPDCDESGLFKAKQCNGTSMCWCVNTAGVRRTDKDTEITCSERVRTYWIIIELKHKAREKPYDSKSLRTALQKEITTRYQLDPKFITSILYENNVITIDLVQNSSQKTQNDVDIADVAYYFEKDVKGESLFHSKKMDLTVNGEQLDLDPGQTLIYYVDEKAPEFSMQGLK

B1: ING-1 light chain E98N (Fab, V domains shown)
VH: QIQLVQSGPELKKPGETVKISCKASGYTFTKYGMNWVKQAPGKGLKWMGWINTYTEEPTYGDDFKGRFAFSLETSASTANLQINNLKSEDTATYFCARFGSAVDYWGQGTSVTVSS
VL: DIVMTQAAFSNPVTLGTSGSISCRSSKSLLHSNGITYLYWYLQKPGQSPQLLIYQMSNLASGVPDRFSSSGSGTDFTLRISRVEAEDVGVYYCAQNLNLPRTFGGGTKLEMKR
notes: Fab, periplasmic extract
B2: ING-1 light chain K27E (Fab, V domains shown)
VH: QIQLVQSGPELKKPGETVKISCKASGYTFTKYGMNWVKQAPGKGLKWMGWINTYTEEPTYGDDFKGRFAFSLETSASTANLQINNLKSEDTATYFCARFGSAVDYWGQGTSVTVSS
VL: DIVMTQAAFSNPVTLGTSGSISCRSSESLLHSNGITYLYWYLQKPGQSPQLLIYQMSNLASGVPDRFSSSGSGTDFTLRISRVEAEDVGVYYCAQNLELPRTFGGGTKLEMKR
notes: Fab, periplasmic extract
B3: ING-1 light chain K27N (Fab, V domains shown)
VH: QIQLVQSGPELKKPGETVKISCKASGYTFTKYGMNWVKQAPGKGLKWMGWINTYTEEPTYGDDFKGRFAFSLETSASTANLQINNLKSEDTATYFCARFGSAVDYWGQGTSVTVSS
VL: DIVMTQAAFSNPVTLGTSGSISCRSSNSLLHSNGITYLYWYLQKPGQSPQLLIYQMSNLASGVPDRFSSSGSGTDFTLRISRVEAEDVGVYYCAQNLELPRTFGGGTKLEMKR
notes: Fab, periplasmic extract
B4: ING-1 light chain K27S (Fab, V domains shown)
VH: QIQLVQSGPELKKPGETVKISCKASGYTFTKYGMNWVKQAPGKGLKWMGWINTYTEEPTYGDDFKGRFAFSLETSASTANLQINNLKSEDTATYFCARFGSAVDYWGQGTSVTVSS
VL: DIVMTQAAFSNPVTLGTSGSISCRSSSSLLHSNGITYLYWYLQKPGQSPQLLIYQMSNLASGVPDRFSSSGSGTDFTLRISRVEAEDVGVYYCAQNLELPRTFGGGTKLEMKR
notes: Fab, periplasmic extract
B5: ING-1 light chain I35N (Fab, V domains shown)
VH: QIQLVQSGPELKKPGETVKISCKASGYTFTKYGMNWVKQAPGKGLKWMGWINTYTEEPTYGDDFKGRFAFSLETSASTANLQINNLKSEDTATYFCARFGSAVDYWGQGTSVTVSS
VL: DIVMTQAAFSNPVTLGTSGSISCRSSKSLLHSNGNTYLYWYLQKPGQSPQLLIYQMSNLASGVPDRFSSSGSGTDFTLRISRVEAEDVGVYYCAQNLELPRTFGGGTKLEMKR
notes: Fab, periplasmic extract
B6: ING-1 light chain L29D (Fab, V domains shown)
VH: QIQLVQSGPELKKPGETVKISCKASGYTFTKYGMNWVKQAPGKGLKWMGWINTYTEEPTYGDDFKGRFAFSLETSASTANLQINNLKSEDTATYFCARFGSAVDYWGQGTSVTVSS
VL: DIVMTQAAFSNPVTLGTSGSISCRSSKSDLHSNGITYLYWYLQKPGQSPQLLIYQMSNLASGVPDRFSSSGSGTDFTLRISRVEAEDVGVYYCAQNLELPRTFGGGTKLEMKR
notes: Fab, periplasmic extract
B7: ING-1 light chain L29F (Fab, V domains shown)
VH: QIQLVQSGPELKKPGETVKISCKASGYTFTKYGMNWVKQAPGKGLKWMGWINTYTEEPTYGDDFKGRFAFSLETSASTANLQINNLKSEDTATYFCARFGSAVDYWGQGTSVTVSS
VL: DIVMTQAAFSNPVTLGTSGSISCRSSKSFLHSNGITYLYWYLQKPGQSPQLLIYQMSNLASGVPDRFSSSGSGTDFTLRISRVEAEDVGVYYCAQNLELPRTFGGGTKLEMKR
notes: Fab, periplasmic extract
B8: ING-1 light chain H31R (Fab, V domains shown)
VH: QIQLVQSGPELKKPGETVKISCKASGYTFTKYGMNWVKQAPGKGLKWMGWINTYTEEPTYGDDFKGRFAFSLETSASTANLQINNLKSEDTATYFCARFGSAVDYWGQGTSVTVSS
VL: DIVMTQAAFSNPVTLGTSGSISCRSSKSLLRSNGITYLYWYLQKPGQSPQLLIYQMSNLASGVPDRFSSSGSGTDFTLRISRVEAEDVGVYYCAQNLELPRTFGGGTKLEMKR
notes: Fab, periplasmic extract
B9: ING-1 light chain L29E (Fab, V domains shown)
VH: QIQLVQSGPELKKPGETVKISCKASGYTFTKYGMNWVKQAPGKGLKWMGWINTYTEEPTYGDDFKGRFAFSLETSASTANLQINNLKSEDTATYFCARFGSAVDYWGQGTSVTVSS
VL: DIVMTQAAFSNPVTLGTSGSISCRSSKSELHSNGITYLYWYLQKPGQSPQLLIYQMSNLASGVPDRFSSSGSGTDFTLRISRVEAEDVGVYYCAQNLELPRTFGGGTKLEMKR
notes: Fab, periplasmic extract
B10: ING-1 light chain H31N (Fab, V domains shown)
VH: QIQLVQSGPELKKPGETVKISCKASGYTFTKYGMNWVKQAPGKGLKWMGWINTYTEEPTYGDDFKGRFAFSLETSASTANLQINNLKSEDTATYFCARFGSAVDYWGQGTSVTVSS
VL: DIVMTQAAFSNPVTLGTSGSISCRSSKSLLNSNGITYLYWYLQKPGQSPQLLIYQMSNLASGVPDRFSSSGSGTDFTLRISRVEAEDVGVYYCAQNLELPRTFGGGTKLEMKR
notes: Fab, periplasmic extract
B11: ING-1 light chain K27W (Fab, V domains shown)
VH: QIQLVQSGPELKKPGETVKISCKASGYTFTKYGMNWVKQAPGKGLKWMGWINTYTEEPTYGDDFKGRFAFSLETSASTANLQINNLKSEDTATYFCARFGSAVDYWGQGTSVTVSS
VL: DIVMTQAAFSNPVTLGTSGSISCRSSWSLLHSNGITYLYWYLQKPGQSPQLLIYQMSNLASGVPDRFSSSGSGTDFTLRISRVEAEDVGVYYCAQNLELPRTFGGGTKLEMKR
notes: Fab, periplasmic extract
B12: ING-1 light chain E98S (Fab, V domains shown)
VH: QIQLVQSGPELKKPGETVKISCKASGYTFTKYGMNWVKQAPGKGLKWMGWINTYTEEPTYGDDFKGRFAFSLETSASTANLQINNLKSEDTATYFCARFGSAVDYWGQGTSVTVSS
VL: DIVMTQAAFSNPVTLGTSGSISCRSSKSLLHSNGITYLYWYLQKPGQSPQLLIYQMSNLASGVPDRFSSSGSGTDFTLRISRVEAEDVGVYYCAQNLSLPRTFGGGTKLEMKR
notes: Fab, periplasmic extract
B13: ING-1 light chain L29Q (Fab, V domains shown)
VH: QIQLVQSGPELKKPGETVKISCKASGYTFTKYGMNWVKQAPGKGLKWMGWINTYTEEPTYGDDFKGRFAFSLETSASTANLQINNLKSEDTATYFCARFGSAVDYWGQGTSVTVSS
VL: DIVMTQAAFSNPVTLGTSGSISCRSSKSQLHSNGITYLYWYLQKPGQSPQLLIYQMSNLASGVPDRFSSSGSGTDFTLRISRVEAEDVGVYYCAQNLELPRTFGGGTKLEMKR
notes: Fab, periplasmic extract
B14: ING-1 light chain H31K (Fab, V domains shown)
VH: QIQLVQSGPELKKPGETVKISCKASGYTFTKYGMNWVKQAPGKGLKWMGWINTYTEEPTYGDDFKGRFAFSLETSASTANLQINNLKSEDTATYFCARFGSAVDYWGQGTSVTVSS
VL: DIVMTQAAFSNPVTLGTSGSISCRSSKSLLKSNGITYLYWYLQKPGQSPQLLIYQMSNLASGVPDRFSSSGSGTDFTLRISRVEAEDVGVYYCAQNLELPRTFGGGTKLEMKR
notes: Fab, periplasmic extract
B15: ING-1 heavy chain Y105S (Fab, V domains shown)
VH: QIQLVQSGPELKKPGETVKISCKASGYTFTKYGMNWVKQAPGKGLKWMGWINTYTEEPTYGDDFKGRFAFSLETSASTANLQINNLKSEDTATYFCARFGSAVDSWGQGTSVTVSS
VL: DIVMTQAAFSNPVTLGTSGSISCRSSKSLLHSNGITYLYWYLQKPGQSPQLLIYQMSNLASGVPDRFSSSGSGTDFTLRISRVEAEDVGVYYCAQNLELPRTFGGGTKLEMKR

The first assay concerns the target T1, Ep-CAM. The assay can be described thus: Biacore, Fab periplasmic extract. A general note: In SPR one partner is held on a chip, and binding of the other changes the refractive index at the surface.
As for B1, the binding result is reported as “no binding”. For the molecule B2, the binding result is recorded as “no binding”. B3: the binding result is on record as “no binding”. B4: the binding result is “no binding”. For the molecule B5, the “fold difference in affinity vs parental ING-1” value was 0.5 fold. In the case of B6, the binding result is “no binding”.

On to B7, for which the binding result was “no binding”. As to B8, the “fold difference in affinity vs parental ING-1” value came out at 0.06 fold. Consider B9, for which the binding result is “no binding”. Regarding B10, the “fold difference in affinity vs parental ING-1” value turned out to be 0.5 fold. B11: the binding result is recorded as “no binding”. Consider B12, for which the binding result is “no binding”.

Turning to B13, the binding result is reported as “no binding”. As to B14, the “fold difference in affinity vs parental ING-1” value worked out at 0.05 fold.

The target in another assay is T2, Ep-CAM. The assay can be described thus: Biacore, Fab periplasmic extract.
Consider B15, for which the “fold difference in affinity vs original” value was 0.09 fold.
